Test results from patent US20250346639A1, “BACTERIOCIN POLYPEPTIDES, NUCLEIC ACIDS ENCODING SAME, AND METHODS OF USE THEREOF” (Syngulon SA, priority 2022, published 2025).

How the values were obtained:
[1] = tested on: L. lactis IL1403; test: Antimicrobial activity (halo of inhibition on petri dishes) of cell-free produced, intein-circularized bacteriocins against indicator L. lactis IL1403; format: cell-based, Lactococcus lactis; design: key: +: Bacteriocins showing a halo of inhibition against at least one of the indicators were considered as positive; conditions: bacteriocins circularized with inteins; cell free production and overnight incubation at room temperature
Method: (§1) Recombinant vectors were stabilized and amplified in E. coli DH5a standard strain and used as templates for cell-free protein synthesis using PURExpress® in vitro Protein Synthesis Kit (New England Biolabs). All bacteriocins synthesized were tested on petri dishes for antimicrobial activity against an indicator strain. Bacteriocins showing a halo of inhibition against at least one of the indicators were considered as positive.
(§2) Following the same scheme as for GarML, different plasmids containing genes coding for recombinant proteins containing Npu IC and IN fused to the mature amino acid sequence of different known and hypothetical circular bacteriocins were synthesized. The circularization point for all of them was changed with respect to the native peptides so they all would start with a Ser in position 1 (Table 2.1). The Ssra tag was also added to the C-terminus. […] Plasmids synthesized were used as templates for cell free protein production. Antimicrobial activity of the peptides obtained after cell free production and overnight incubation at room temperature were tested against indicator L. lactis IL1403.

[2] = tested on: L. inocua; test: Antimicrobial activity (halo of inhibition on petri dishes) of cell-free produced, intein-circularized bacteriocins against indicator L. inocua; format: cell-based; design: key: +: Bacteriocins showing a halo of inhibition against at least one of the indicators were considered as positive; conditions: bacteriocins circularized with inteins; cell free production
Method: as §1, §2

[3] = tested on: P. pentosaceus HELA; test: Antimicrobial activity (halo of inhibition on petri dishes) of cell-free produced, intein-circularized bacteriocins against indicator P. pentosaceus HELA; format: cell-based; design: key: +: Bacteriocins showing a halo of inhibition against at least one of the indicators were considered as positive; conditions: bacteriocins circularized with inteins; cell free production
Method: as §1, §2

[4] = tested on: L. lactis; test: Controlling growth of contaminating L. lactis in a culture medium with a circular bacteriocin (Examples 5 and 6); format: cell-based
Excerpt: A polypeptide containing an amino acid sequence of a circular bacteriocin, for example Enterocin AS-48, flanked by a split intein is produced. The split intein is a conditionally active, pH-sensitive split intein, and is configured to circularize the bacteriocin when the pH is below 6.0. The polypeptide is introduced into a culture medium growing a microbial organism of interest, at pH 7.0. […] When a contaminating microbial species, L. lactis, is detected in the culture medium, the pH of the medium is reduced to below 6.0, which activates the split intein and causes the bacteriocin to circularize. Subsequently, the growth of the contaminating L. lactis in the culture medium is inhibited.
A microbial cell is genetically engineered with an expression vector encoding a circular bacteriocin, for example Leucocyclicin Q, flanked by a split intein. The genetically engineered microbial cell is introduced into a culture medium growing a microbial organism of interest. The microbial cell produces the bacteriocin in circularized form, and secretes it into the culture medium. Growth of a contaminating microbial species, L. lactis, is inhibited by the circular bacteriocin.

## Bacteriocin NCTC 12958: putative circular bacteriocin of Streptococcus thermophilus NCTC 12958; SEQ ID NO: 854 circularized with Npu split intein (SAGGSIVDAFAIIAGITLPAWVAPVLAGFGVVSAIYWICGKFGIRLAPGWYQDIVDFV; circularized via Npu split intein; Bacteriocin NCTC 12958; Strain NCTC 12958; listed as Streptococcus thermophilus)
[1]
  Antimicrobial activity, Indicator L. lactis IL1403: +

## Carnocyclin A (SLINAGLTVGSIISILGGVTVGLSGVFTAVKAAIAKQGIKKAIQLLVAYGIAQGTAEKVV; circularized via Npu split intein; Carnocyclin A; Strain UAL307; listed as Carnobacterium maltaromaticum) [circular bacteriocin of Carnobacterium maltaromaticum UAL307]
[1]
  Antimicrobial activity, Indicator L. lactis IL1403: +

## Garvicin ML (SGAFTAAGGIMALIKKYAQKKLWKQLIAALVATGMAAGVAKTIVNAVSAGMDIATALSLF; circularized via Npu split intein; Garvicin ML (GarML); Strain DCC43; listed as Lactococcus garvieae) [circular bacteriocin of Lactococcus garvieae DCC43]
[1]
  Antimicrobial activity, Indicator L. lactis IL1403: +

## Gassericin A (SGASLGTAFAAILGVTLPAWALAAAGALGATAAIYWIADQFGIHLATGTARKLLDAMA; circularized via Npu split intein; Strain LA39; Gassericin A (GasA); listed as Lactobacillus gasseri) [circular bacteriocin of Lactobacillus gasseri LA39]
[2]
  Antimicrobial activity, Indicator L. inocua: +
[3]
  Antimicrobial activity, Indicator P. pentosaceus HELA: +
[1]
  Antimicrobial activity, Indicator L. lactis IL1403: +

## Paracyclicin P (SAGGSLAGAFSVVAGVTLPAWIVPIATAFGAVSAIYFIANKLGIHLAPGWYQDMVNYV; circularized via Npu split intein; Paracyclicin P (ParP); subsp. Paracasei JCM 8130/ DSM 5622; listed as Lactobacillus paracesei) [circular bacteriocin of Lactobacillus paracasei JCM 8130/DSM 5622]
[1]
  Antimicrobial activity, Indicator L. lactis IL1403: +

## Plantaricyclin A (SLTQKALDLLSAGSSLGTVAAAVLGVTLPAWAVAAAGALGGTAAIVWIAKQFGVHLTT; circularized via Npu split intein; Plantaricyclin A (PlcA); Strain NI326; listed as Lactobacillus plantarum) [circular bacteriocin of Lactobacillus plantarum NI326]
[1]
  Antimicrobial activity, Indicator L. lactis IL1403: +

B1: Amylocyclicin (protein, listed as Bacillus amyloliquefaciens)
chain: STAAAKKAIDIIDAASTIASIISLIGIVTGAGAISYAIVATAKTMIKKYGKKYAAAWLASTLGI
modifications: circularized via Npu split intein; Strain FZB42; Amylocyclicin (Alc)
notes: circular bacteriocin of Bacillus amyloliquefaciens FZB42
[1]
  Antimicrobial activity, Indicator L. lactis IL1403: +

B2: Bacteriocin YS111: putative circular bacteriocin of Streptococcus suis YS111; SEQ ID NO: 828 circularized with Npu split intein (protein, listed as Streptococcus suis)
chain: STVVNVILGAGTAVTILGIISSIASGGATTLLTVGWAGFKATVQRLAKQSMARAIAYVAAALGVPSAVA
modifications: circularized via Npu split intein; Strain YS111; Bacteriocin YS111
[1]
  Antimicrobial activity, Indicator L. lactis IL1403: +

B3: Enterocin NKR-5-3B (protein, listed as Enterococcus faecium)
chain: SSYAAKKVIDIINTGSAVATIIALVTAVVGGGLITAGIVATAKSLIKKYGAKYAAAWLTANLGI
modifications: circularized via Npu split intein; Strain NKR-5-3; Enterocin NKR-5-3B
notes: circular bacteriocin of Enterococcus faecium NKR-5-3
[2]
  Antimicrobial activity, Indicator L. inocua: +
[1]
  Antimicrobial activity, Indicator L. lactis IL1403: +

B4: Enterocin AS-48 (protein, listed as Enterococcus faecalis)
chain: SIKAYLKKEIKKKGKRAVIAWMAKEFGIPAAVAGTVLNVVEAGGWVTTIVSILTAVGSGGLSLLAAAGRE
modifications: circularized via Npu split intein; Enterocin AS-48 (EntAS48); Strain 48
notes: circular bacteriocin of Enterococcus faecalis S-48
[1]
  Antimicrobial activity, Indicator L. lactis IL1403: +
[4]; Example 5, pH-sensitive split intein, pH 7.0
  antimicrobial activity of non-circularized bacteriocin in culture medium: does not exhibit antimicrobial activity
[4]; Example 5, pH-sensitive split intein, pH reduced to below 6.0
  growth of contaminating L. lactis in culture medium: inhibited

B5: DSM 15102: putative circular bacteriocin of Garciella nitratireducens DSM 15102; SEQ ID NO: 832 circularized with Npu split intein (protein, listed as Garciella nitratireducens)
chain: SMLGISTVAAKKVIDIIDTASTVATIISLIGVIVGVGGITAGLVTTAKAMIKKYGKKYATMWLA
modifications: circularized via Npu split intein; Bacteriocin DSM 15102; Strain DSM 15102
[1]
  Antimicrobial activity, Indicator L. lactis IL1403: +

B6: Bacteriocin BCW 2997: putative circular bacteriocin of Listeria monocytogenes BCW 2997; SEQ ID NO: 818 circularized with Npu split intein (protein)
chain: SIKVYLKKQIKKKGRKAVIAWLAKEFGIPGGVAATVLNIVEAGGWATTILSILTAVGSGGLSLIAAAGKE
modifications: circularized via Npu split intein; Strain BCW 2997; Bacteriocin BCW 2997; Listeria monocytogenes
[1]
  Antimicrobial activity, Indicator L. lactis IL1403: +

B7: Bacteriocin 3688STDY6124959: putative circular bacteriocin of Staphylococcus aureus 3688STDY6124959; SEQ ID NO: 814 circularized with Npu split intein (protein, listed as Staphylococcus aureus)
chain: STLGISSYAAKKAIDIIAAAGDVAAIVGLIGAVTGAGAIGAGILFTAKKLIKSYGKKYAAAWLT
modifications: circularized via Npu split intein; Bacteriocin 3688STDY6124959; Strain 3688STDY6124959
[1]
  Antimicrobial activity, Indicator L. lactis IL1403: +

B8: Uberolysin A (protein, listed as Streptococcus uberis)
chain: SGTAKKVVDAIDKGAAAFVIISIISTVISAGALGAVSASADFIILTVKNYISRNLKAQAVIWLAGYTGIA
modifications: circularized via Npu split intein; Uberolysin A (UberA); Strain 42
notes: circular bacteriocin of Streptococcus uberis 42
[2]
  Antimicrobial activity, Indicator L. inocua: +

B9: Leucocyclicin Q (protein)
chain: SKSLANTILGAIAVGNLASWLLALVPGPGWATKAALATAETIVKHEGKAAAIAWLVNQLGI
modifications: circularized via Npu split intein; Strain TK41401; Leucocyclicin Q; Leuconostoc mesenteroides
notes: circular bacteriocin of Leuconostoc mesenteroides TK41401
[1]
  Antimicrobial activity, Indicator L. lactis IL1403: +
[4]; Example 6, bacteriocin secreted by genetically engineered microbial cell
  growth of contaminating L. lactis in culture medium: inhibited

B10: Circularin A (protein, listed as Clostridium beijerinckii)
chain: SIASGGAGTLMTIGWATFKATVQKLAKQSMARAIAYVAGALGVQTAAATTIVNVILNAGTLVTVLGIIA
modifications: circularized via Npu split intein; Circularin A (CirA); ATCC 25752
notes: circular bacteriocin of Clostridium beijerinckii ATCC 25752
[1]
  Antimicrobial activity, Indicator L. lactis IL1403: +
